Data reported in patent US20140087995A1 (published 2014).
Blank lines part the entries; values can stand above or below the binder they belong to. Numbered stars: 1 amine (or outer) side, 2 acyl side, 3 side chain; on linkers, the order of the positions; unused ones are H or OH. Bridge positions count the residues as written; N and C are the ends. Side chains are listed from the residue outwards. Ends that are not written are not given here. * marks the point of attachment. C20 diacid = O=C(O)CCCCCCCCCCCCCCCCCCC(=O)*; γGlu = O=C(O)[C@H](CCC(=O)[*:2])N[*:1]; AEEA = NCCOCCOCC(=O)O

What was measured:
[1] = biological target: T1, human calcitonin receptor (human, UniProt P30988 25-474); experiment: SPA competition vs 125I-calcitonin, membranes of BHK cells with human calcitonin receptor (Assay VII)
T1 construct: whole, on cells; Assayed as cell membranes of BHK tk'ts 13 cells stably transfected with the human calcitonin receptor (Assay VII); also called hCTR; hCT
T1 sequence (looked up): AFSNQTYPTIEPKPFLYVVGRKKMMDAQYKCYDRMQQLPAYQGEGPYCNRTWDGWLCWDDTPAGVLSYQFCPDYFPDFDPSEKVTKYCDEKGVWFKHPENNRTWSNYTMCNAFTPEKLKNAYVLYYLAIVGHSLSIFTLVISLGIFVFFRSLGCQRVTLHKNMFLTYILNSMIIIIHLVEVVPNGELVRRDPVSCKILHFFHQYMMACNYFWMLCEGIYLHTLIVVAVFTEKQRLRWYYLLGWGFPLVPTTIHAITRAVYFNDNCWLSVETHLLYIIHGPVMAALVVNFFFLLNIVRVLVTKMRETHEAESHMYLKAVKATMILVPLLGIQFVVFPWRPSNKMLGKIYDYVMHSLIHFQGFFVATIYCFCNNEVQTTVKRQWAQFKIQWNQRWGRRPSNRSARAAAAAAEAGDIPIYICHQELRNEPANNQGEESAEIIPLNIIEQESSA
Summary of the method: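 BHK hCTR membranes 35 ng/μL + SPA beads 0.05 mg/well; buffer 50 mM Hepes pH 7.4, 1 mM CaCl2, 5 mM MgCl₂, 0.1% OA, 0.02% Tween20. 120 min, 25° C., shaking. Scintillation count; IC50 by one-site binding competition.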

[2] = biological target: T1, human calcitonin receptor; experiment: IC50 at hCTR divided by IC50 at hAmylin-R (SPA competition assays V and VII)
Summary of the method: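 Scintillation proximity competition binding on cell membranes at 35 ng/μL with SPA beads, in 50 mM Hepes pH 7.4, 1 mM CaCl2, 5 mM MgCl₂, 0.1% OA, 0.02% Tween20. Incubated 120 min at 25° C with shaking. IC₅₀ from one-site competition fit.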

B1: N^ε1-[2-[2-[2-[[(4S)-4-carboxy-4-(19-carboxynonadecanoylamino)butanoyl]amino]ethoxy]ethoxy]acetyl]-[Arg17,Pro21,Pro27,Pro34]-h-amylin (peptide)
peptide: K([AEEA-γGlu-C20 diacid])CNTATCATQRLANFLRHSSPNFGAIPSSTNVGPNTY-NH2
modifications: disulfide 2-7; N-terminus assumed
SMILES: CC[C@H](C)[C@H](NC(=O)[C@H](C)NC(=O)CNC(=O)[C@H](Cc1ccccc1)NC(=O)[C@H](CC(N)=O)NC(=O)[C@@H]1CCCN1C(=O)[C@H](CO)NC(=O)[C@H](CO)NC(=O)[C@H](Cc1c[nH]cn1)NC(=O)[C@H](CCCNC(=N)N)NC(=O)[C@H](CC(C)C)NC(=O)[C@H](Cc1ccccc1)NC(=O)[C@H](CC(N)=O)NC(=O)[C@H](C)NC(=O)[C@H](CC(C)C)NC(=O)[C@H](CCCNC(=N)N)NC(=O)[C@H](CCC(N)=O)NC(=O)[C@@H](NC(=O)[C@H](C)NC(=O)[C@@H]1CSSC[C@H](NC(=O)[C@@H](N)CCCCNC(=O)COCCOCCNC(=O)CC[C@H](NC(=O)CCCCCCCCCCCCCCCCCCC(=O)O)C(=O)O)C(=O)N[C@@H](CC(N)=O)C(=O)N[C@@H]([C@@H](C)O)C(=O)N[C@@H](C)C(=O)N[C@@H]([C@@H](C)O)C(=O)N1)[C@@H](C)O)C(=O)N1CCC[C@H]1C(=O)N[C@@H](CO)C(=O)N[C@@H](CO)C(=O)N[C@H](C(=O)N[C@@H](CC(N)=O)C(=O)N[C@H](C(=O)NCC(=O)N1CCC[C@H]1C(=O)N[C@@H](CC(N)=O)C(=O)N[C@H](C(=O)N[C@@H](Cc1ccc(O)cc1)C(N)=O)[C@@H](C)O)C(C)C)[C@@H](C)O
notes: also called compound 50
IC50 [1]: 1.38 nM
Ratio hCT/hAmylin binding [2]: 36

B3: N^ε1-[2-[2-[2-[[(4S)-4-carboxy-4-(19-carboxynonadecanoylamino)butanoyl]amino]ethoxy]ethoxy]acetyl]-[His14,Arg17,Pro21,Pro27,Arg34]-h-amylin (peptide)
peptide: K([AEEA-γGlu-C20 diacid])CNTATCATQRLAHFLRHSSPNFGAIPSSTNVGRNTY-NH2
modifications: disulfide 2-7; N-terminus assumed
SMILES: CC[C@H](C)[C@H](NC(=O)[C@H](C)NC(=O)CNC(=O)[C@H](Cc1ccccc1)NC(=O)[C@H](CC(N)=O)NC(=O)[C@@H]1CCCN1C(=O)[C@H](CO)NC(=O)[C@H](CO)NC(=O)[C@H](Cc1c[nH]cn1)NC(=O)[C@H](CCCNC(=N)N)NC(=O)[C@H](CC(C)C)NC(=O)[C@H](Cc1ccccc1)NC(=O)[C@H](Cc1c[nH]cn1)NC(=O)[C@H](C)NC(=O)[C@H](CC(C)C)NC(=O)[C@H](CCCNC(=N)N)NC(=O)[C@H](CCC(N)=O)NC(=O)[C@@H](NC(=O)[C@H](C)NC(=O)[C@@H]1CSSC[C@H](NC(=O)[C@@H](N)CCCCNC(=O)COCCOCCNC(=O)CC[C@H](NC(=O)CCCCCCCCCCCCCCCCCCC(=O)O)C(=O)O)C(=O)N[C@@H](CC(N)=O)C(=O)N[C@@H]([C@@H](C)O)C(=O)N[C@@H](C)C(=O)N[C@@H]([C@@H](C)O)C(=O)N1)[C@@H](C)O)C(=O)N1CCC[C@H]1C(=O)N[C@@H](CO)C(=O)N[C@@H](CO)C(=O)N[C@H](C(=O)N[C@@H](CC(N)=O)C(=O)N[C@H](C(=O)NCC(=O)N[C@@H](CCCNC(=N)N)C(=O)N[C@@H](CC(N)=O)C(=O)N[C@H](C(=O)N[C@@H](Cc1ccc(O)cc1)C(N)=O)[C@@H](C)O)C(C)C)[C@@H](C)O
notes: also called compound 84
IC50 [1]: 88.9 nM
Ratio hCT/hAmylin binding [2]: 120

B5: N^ε1-[2-[2-[2-[[(4S)-4-carboxy-4-(19-carboxynonadecanoylamino)butanoyl]amino]ethoxy]ethoxy]acetyl]-[His14,Arg17,Pro21,Pro27,Pro31]-h-amylin (peptide)
peptide: K([AEEA-γGlu-C20 diacid])CNTATCATQRLAHFLRHSSPNFGAIPSSTPVGSNTY-NH2
modifications: disulfide 2-7; N-terminus assumed
SMILES: CC[C@H](C)[C@H](NC(=O)[C@H](C)NC(=O)CNC(=O)[C@H](Cc1ccccc1)NC(=O)[C@H](CC(N)=O)NC(=O)[C@@H]1CCCN1C(=O)[C@H](CO)NC(=O)[C@H](CO)NC(=O)[C@H](Cc1c[nH]cn1)NC(=O)[C@H](CCCNC(=N)N)NC(=O)[C@H](CC(C)C)NC(=O)[C@H](Cc1ccccc1)NC(=O)[C@H](Cc1c[nH]cn1)NC(=O)[C@H](C)NC(=O)[C@H](CC(C)C)NC(=O)[C@H](CCCNC(=N)N)NC(=O)[C@H](CCC(N)=O)NC(=O)[C@@H](NC(=O)[C@H](C)NC(=O)[C@@H]1CSSC[C@H](NC(=O)[C@@H](N)CCCCNC(=O)COCCOCCNC(=O)CC[C@H](NC(=O)CCCCCCCCCCCCCCCCCCC(=O)O)C(=O)O)C(=O)N[C@@H](CC(N)=O)C(=O)N[C@@H]([C@@H](C)O)C(=O)N[C@@H](C)C(=O)N[C@@H]([C@@H](C)O)C(=O)N1)[C@@H](C)O)C(=O)N1CCC[C@H]1C(=O)N[C@@H](CO)C(=O)N[C@@H](CO)C(=O)N[C@H](C(=O)N1CCC[C@H]1C(=O)N[C@H](C(=O)NCC(=O)N[C@@H](CO)C(=O)N[C@@H](CC(N)=O)C(=O)N[C@H](C(=O)N[C@@H](Cc1ccc(O)cc1)C(N)=O)[C@@H](C)O)C(C)C)[C@@H](C)O
notes: also called compound 61
IC50 [1]: 8.11 nM
Ratio hCT/hAmylin binding [2]: 66.7

Other lines, results leading:

IC50 [1]: 5.66 nM
Ratio hCT/hAmylin binding [2]: 64.4
B2: N^ε1-[2-[2-[2-[[(4S)-4-carboxy-4-(19-carboxynonadecanoylamino)butanoyl]amino]ethoxy]ethoxy]acetyl]-[His14,Arg17,Pro21,Pro27,Pro34]-h-amylin (peptide)
peptide: K([AEEA-γGlu-C20 diacid])CNTATCATQRLAHFLRHSSPNFGAIPSSTNVGPNTY-NH2
modifications: disulfide 2-7; N-terminus assumed
SMILES: CC[C@H](C)[C@H](NC(=O)[C@H](C)NC(=O)CNC(=O)[C@H](Cc1ccccc1)NC(=O)[C@H](CC(N)=O)NC(=O)[C@@H]1CCCN1C(=O)[C@H](CO)NC(=O)[C@H](CO)NC(=O)[C@H](Cc1c[nH]cn1)NC(=O)[C@H](CCCNC(=N)N)NC(=O)[C@H](CC(C)C)NC(=O)[C@H](Cc1ccccc1)NC(=O)[C@H](Cc1c[nH]cn1)NC(=O)[C@H](C)NC(=O)[C@H](CC(C)C)NC(=O)[C@H](CCCNC(=N)N)NC(=O)[C@H](CCC(N)=O)NC(=O)[C@@H](NC(=O)[C@H](C)NC(=O)[C@@H]1CSSC[C@H](NC(=O)[C@@H](N)CCCCNC(=O)COCCOCCNC(=O)CC[C@H](NC(=O)CCCCCCCCCCCCCCCCCCC(=O)O)C(=O)O)C(=O)N[C@@H](CC(N)=O)C(=O)N[C@@H]([C@@H](C)O)C(=O)N[C@@H](C)C(=O)N[C@@H]([C@@H](C)O)C(=O)N1)[C@@H](C)O)C(=O)N1CCC[C@H]1C(=O)N[C@@H](CO)C(=O)N[C@@H](CO)C(=O)N[C@H](C(=O)N[C@@H](CC(N)=O)C(=O)N[C@H](C(=O)NCC(=O)N1CCC[C@H]1C(=O)N[C@@H](CC(N)=O)C(=O)N[C@H](C(=O)N[C@@H](Cc1ccc(O)cc1)C(N)=O)[C@@H](C)O)C(C)C)[C@@H](C)O
notes: also called compound 68

IC50 [1]: 19.8 nM
Ratio hCT/hAmylin binding [2]: 68.1
B4: N^ε1-[2-[2-[2-[[(4S)-4-carboxy-4-(19-carboxynonadecanoylamino)butanoyl]amino]ethoxy]ethoxy]acetyl]-[His14,Arg17,Pro21,Pro27,His34]-h-amylin (peptide)
peptide: K([AEEA-γGlu-C20 diacid])CNTATCATQRLAHFLRHSSPNFGAIPSSTNVGHNTY-NH2
modifications: disulfide 2-7; N-terminus assumed
SMILES: CC[C@H](C)[C@H](NC(=O)[C@H](C)NC(=O)CNC(=O)[C@H](Cc1ccccc1)NC(=O)[C@H](CC(N)=O)NC(=O)[C@@H]1CCCN1C(=O)[C@H](CO)NC(=O)[C@H](CO)NC(=O)[C@H](Cc1c[nH]cn1)NC(=O)[C@H](CCCNC(=N)N)NC(=O)[C@H](CC(C)C)NC(=O)[C@H](Cc1ccccc1)NC(=O)[C@H](Cc1c[nH]cn1)NC(=O)[C@H](C)NC(=O)[C@H](CC(C)C)NC(=O)[C@H](CCCNC(=N)N)NC(=O)[C@H](CCC(N)=O)NC(=O)[C@@H](NC(=O)[C@H](C)NC(=O)[C@@H]1CSSC[C@H](NC(=O)[C@@H](N)CCCCNC(=O)COCCOCCNC(=O)CC[C@H](NC(=O)CCCCCCCCCCCCCCCCCCC(=O)O)C(=O)O)C(=O)N[C@@H](CC(N)=O)C(=O)N[C@@H]([C@@H](C)O)C(=O)N[C@@H](C)C(=O)N[C@@H]([C@@H](C)O)C(=O)N1)[C@@H](C)O)C(=O)N1CCC[C@H]1C(=O)N[C@@H](CO)C(=O)N[C@@H](CO)C(=O)N[C@H](C(=O)N[C@@H](CC(N)=O)C(=O)N[C@H](C(=O)NCC(=O)N[C@@H](Cc1c[nH]cn1)C(=O)N[C@@H](CC(N)=O)C(=O)N[C@H](C(=O)N[C@@H](Cc1ccc(O)cc1)C(N)=O)[C@@H](C)O)C(C)C)[C@@H](C)O
notes: also called compound 80

IC50 [1]: 1.53 nM
Ratio hCT/hAmylin binding [2]: 32
B6: N^ε1-[2-[2-[2-[[(4S)-4-carboxy-4-(19-carboxynonadecanoylamino)butanoyl]amino]ethoxy]ethoxy]acetyl]-[Gly14,Arg17,Pro21,Pro27,Pro31]-h-amylin (peptide)
peptide: K([AEEA-γGlu-C20 diacid])CNTATCATQRLAGFLRHSSPNFGAIPSSTPVGSNTY-NH2
modifications: disulfide 2-7; N-terminus assumed
SMILES: CC[C@H](C)[C@H](NC(=O)[C@H](C)NC(=O)CNC(=O)[C@H](Cc1ccccc1)NC(=O)[C@H](CC(N)=O)NC(=O)[C@@H]1CCCN1C(=O)[C@H](CO)NC(=O)[C@H](CO)NC(=O)[C@H](Cc1c[nH]cn1)NC(=O)[C@H](CCCNC(=N)N)NC(=O)[C@H](CC(C)C)NC(=O)[C@H](Cc1ccccc1)NC(=O)CNC(=O)[C@H](C)NC(=O)[C@H](CC(C)C)NC(=O)[C@H](CCCNC(=N)N)NC(=O)[C@H](CCC(N)=O)NC(=O)[C@@H](NC(=O)[C@H](C)NC(=O)[C@@H]1CSSC[C@H](NC(=O)[C@@H](N)CCCCNC(=O)COCCOCCNC(=O)CC[C@H](NC(=O)CCCCCCCCCCCCCCCCCCC(=O)O)C(=O)O)C(=O)N[C@@H](CC(N)=O)C(=O)N[C@@H]([C@@H](C)O)C(=O)N[C@@H](C)C(=O)N[C@@H]([C@@H](C)O)C(=O)N1)[C@@H](C)O)C(=O)N1CCC[C@H]1C(=O)N[C@@H](CO)C(=O)N[C@@H](CO)C(=O)N[C@H](C(=O)N1CCC[C@H]1C(=O)N[C@H](C(=O)NCC(=O)N[C@@H](CO)C(=O)N[C@@H](CC(N)=O)C(=O)N[C@H](C(=O)N[C@@H](Cc1ccc(O)cc1)C(N)=O)[C@@H](C)O)C(C)C)[C@@H](C)O
notes: also called compound 71
